How the values were obtained:
[1] = target: T1, human factor B (purified, Complement Technology A135) (human, UniProt P00751 26-764); test: BLI (Octet), biotinylated factor B on streptavidin biosensor, Fab at 12.5 nM
T1 construct: also called fB; human complement factor B
Procedure: Binding kinetics of TA106 and TA106 S33A Fab (CLS016) to Factor B were analyzed using a FortéBio® Octet® biosensor (FortéBio, Inc.) in a similar protocol as described previously. In one exemplary experiment, Factor B (Complement Technology) was biotinylated at a 1:10 ratio and coupled to a streptavidin biosensor at a concentration of 5 μg/mL for a loading time of 600 seconds. Biosensors were briefly dipped in 1×KB as a wash for 30 seconds. Associations with a titration series of Fab with a concentration range from 100 to 3 nM (diluted in 1×KB) were carried out for 600 seconds. Fabs were dissociated from the biosensor by immersing the biosensor in 1×KB during the 600 second dissociation phase. As depicted in FIGS. 19 and 20, both TA106 Fab and TA106-derivative S33A Fab (CLS016) bound to Factor B at various concentrations, resulting in nearly identical association and dissociation profiles. Kinetic assessments using partial local fit parameters yielded identical values for KD/kₐ/Kd at each concentration tested.

[2] = target: T1, human factor B (purified, Complement …); test: SPR (Biacore), factor B bound directly to the chip, free TA106 Fab flowed; Chi2 0.901 (the text rounds to 1.4 nM)
Excerpt: (§1) The difference in the two Biacore data sets could be explained as either that the conformation of factor B changes when binding to the surface or that not all commercial factor B is active. This later Biacore experiment (with a fixed concentration of factor B bound to the chip) removed the factor B concentration from the calculation.

[3] = target: T1, human factor B (purified, Complement …); test: SPR (Biacore), factor B directly bound to the chip at low coverage, TA106 Fab flowed over
Excerpt: as §1

[4] = target: T1, human factor B (purified, Complement …); test: SPR (Biacore), human factor B directly coupled to CM5 chip, Fab flowed at 0.19-25 nM
Excerpt: (§2) Binding kinetics of TA106 Fab and variant S33A Fab (CLS016) were further characterized using Surface Plasmon Resonance (SPR) technology. In one exemplary experiment, both Fabs were captured on chips of a Biacore 3000 analyzer and samples of human factor B of different concentrations were flowed as the antigen over the surface to model soluble human factor B binding, using protocols recommended by the manufacturer and described previously in the instant disclosure. […] In another exemplary experiment, the affinities of both Fabs were also measured by reversing the orientation of the previous experiment. Specifically, human factor B was directly coupled to one flow cell of a CM5 chip. The second flow cell was used as a blank reference with no coupled ligand. CLS016 or TA106 Fab was then flowed on both flow cells. Concentrations between 0.19 to 25 nM were run with duplicates. The surface was regenerated between each cycle.

[5] = target: T1, human factor B (purified, Complement …); test: SPR (Biacore 3000), Fab captured by human Fab binder on CM5 chip, soluble human factor B 3.1-200 nM; Fab captured on chip, soluble factor B
Excerpt: Binding kinetics of mAbs were further characterized using Biacore's Surface Plasmon Resonance (SPR) technology (GE Healthcare, Piscataway, N.J.). For a detailed description of SPR and its applications in affinity measurement, please see Karlsson and Larsson, Antibody Engineering: Methods and Protocols, Methods in Molecular Biology (2003), 248: 389-415. In one exemplary experiment, TA106 Fab and derivative mAbs were captured on chips of a Biacore 3000 analyzer and samples of human factor B of different concentrations were flowed as the antigen over the surface to model soluble human factor B binding, using protocols recommended by the manufacturer (e.g., in the product brochure #BR-9003-31). All these referenced publications are hereby incorporated by reference in their entirety. […] Fab TA106 (Xoma, Lot#TTA1007, 20 mg/mL) was then flowed over one flow cell, followed by injections of human factor B on both flow cells. Concentrations (factor B) between 3.1-200 nM were run. The surface was regenerated between each cycle. […] The affinities of mAbs, i.e., CLS011, CLS012, and CLS013, were determined using a similar capture approach. In one exemplary experiment, human anti-Fc antibody was amine coupled to two flow cells of a CM5 chip. Each of the TA106-originated mAbs was then flowed over one flow cell, followed by injecting human factor B (3.1-200 nM) on both flow cells. […]

[6] = target: T1, human factor B (purified, Complement …); test: SPR (Biacore), factor B coupled to the chip, free TA106 Fab 0.19-25 nM flowed; Chi2 1.58 (the text rounds to 1.2 nM)
Excerpt: as §2

[7] = target: T1, human factor B (purified, Complement …); test: SPR, factor B on surface, Fab flowed (summary table)
Excerpt: as §2

[8] = target: T1, human factor B (purified, Complement …); test: SPR (Biacore 3000), Fab captured on chip, soluble human factor B 3.1-100 nM
Excerpt: as §2

[9] = target: T1, human factor B (purified, Complement …); test: SPR (Biacore), factor B bound directly to the chip, free TA106 Fab flowed; Chi2 0.901
Excerpt: as §1

[10] = target: T1, human factor B (purified, Complement …); test: SPR (Biacore), factor B coupled to the chip, free TA106 Fab 0.19-25 nM flowed; Chi2 1.58
Excerpt: as §2

T1 sequence (P00751 26-764): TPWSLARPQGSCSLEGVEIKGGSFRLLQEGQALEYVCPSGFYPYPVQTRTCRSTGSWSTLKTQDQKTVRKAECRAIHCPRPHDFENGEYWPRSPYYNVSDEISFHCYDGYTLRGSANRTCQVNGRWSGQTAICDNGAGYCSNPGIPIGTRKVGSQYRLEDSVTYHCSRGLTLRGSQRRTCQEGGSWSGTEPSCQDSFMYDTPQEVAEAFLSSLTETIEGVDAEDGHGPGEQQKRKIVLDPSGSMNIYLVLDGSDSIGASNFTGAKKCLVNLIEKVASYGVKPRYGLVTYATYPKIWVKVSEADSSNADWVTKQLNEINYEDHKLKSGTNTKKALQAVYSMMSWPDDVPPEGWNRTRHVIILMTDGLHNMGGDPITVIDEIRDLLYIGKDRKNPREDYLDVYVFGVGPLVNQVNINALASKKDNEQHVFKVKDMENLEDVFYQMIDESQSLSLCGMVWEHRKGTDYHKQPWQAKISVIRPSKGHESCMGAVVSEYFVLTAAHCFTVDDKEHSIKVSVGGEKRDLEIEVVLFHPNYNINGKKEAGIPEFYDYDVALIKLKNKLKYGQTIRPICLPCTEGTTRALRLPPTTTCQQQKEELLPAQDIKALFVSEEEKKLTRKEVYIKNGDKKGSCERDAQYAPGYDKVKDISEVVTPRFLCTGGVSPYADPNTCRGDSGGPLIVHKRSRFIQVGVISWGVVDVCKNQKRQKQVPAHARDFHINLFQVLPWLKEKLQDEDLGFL

Kd [1]: 29.8 nM
koff [1]: 0.00324 s⁻¹
kon [1]: 109000 M⁻¹ s⁻¹
Kd [2]: 1.39 nM
Kd [3]: 1.4 nM
Kd [4]: ~1.2 nM
Kd [5]: ~24.9 nM
Kd [6]: 1.17 nM
Kd [7]: 1.5 nM
Kd [8]: ~30.6 nM
koff [9]: 0.00305 s⁻¹
kon [9]: 2.2e+06 M⁻¹ s⁻¹
koff [10]: 0.00333 s⁻¹
kon [10]: 2.84e+06 M⁻¹ s⁻¹
B1: TA106 Fab (humaneered anti-factor B Fab, expressed in E. coli) (Fab, V domains shown)
VH: QVQLVQSGAEVKKPGASVKVSCKASGYSFTDYYMTWVRQAPGQGLEWMGWINPNSGGTKYAQKFQGRVTMTRDTSISTAYMELSRLRSDDTAVYYCARGYYANSAWFAYWGQGTLVTVSS
VL: DIVMTQSPDSLAVSLGERATINCKSSQSLLNSSTSKNYLAWYQQKPGQPPKLLIYWASTRESGVPDRFSGSGSGTDFTLTISSLQAEDVAVYYCKQVYNLPWTFGQGTKLEIKR
notes: Fab made in E. coli by Xoma, not glycosylated; also called Fab TA106; TA106 wild type Fab

— patent US20150166643A1 (Alexion, published 2015)
